We go through 2 molecules from US20030148462A1, “Dual inhibition of sister chromatid separation at metaphase” (President and fellows of Harvard College, priority 2001, published 2003).

For assay [1], the system named is sister chromatid separation and segregation in Xenopus egg extracts. Put plainly: Anaphase and mitotic exit in CSF-arrested Xenopus egg extracts with sperm nuclei. The settings on record: added 10 minutes before Ca2+.
A further assay addresses T1, separase (Homo sapiens, UniProt Q14674).
T1 construct: Full-length human separase was PCR-amplified from a human fetal thymus cDNA library; made in house
T1 sequence (Q14674 1-1486): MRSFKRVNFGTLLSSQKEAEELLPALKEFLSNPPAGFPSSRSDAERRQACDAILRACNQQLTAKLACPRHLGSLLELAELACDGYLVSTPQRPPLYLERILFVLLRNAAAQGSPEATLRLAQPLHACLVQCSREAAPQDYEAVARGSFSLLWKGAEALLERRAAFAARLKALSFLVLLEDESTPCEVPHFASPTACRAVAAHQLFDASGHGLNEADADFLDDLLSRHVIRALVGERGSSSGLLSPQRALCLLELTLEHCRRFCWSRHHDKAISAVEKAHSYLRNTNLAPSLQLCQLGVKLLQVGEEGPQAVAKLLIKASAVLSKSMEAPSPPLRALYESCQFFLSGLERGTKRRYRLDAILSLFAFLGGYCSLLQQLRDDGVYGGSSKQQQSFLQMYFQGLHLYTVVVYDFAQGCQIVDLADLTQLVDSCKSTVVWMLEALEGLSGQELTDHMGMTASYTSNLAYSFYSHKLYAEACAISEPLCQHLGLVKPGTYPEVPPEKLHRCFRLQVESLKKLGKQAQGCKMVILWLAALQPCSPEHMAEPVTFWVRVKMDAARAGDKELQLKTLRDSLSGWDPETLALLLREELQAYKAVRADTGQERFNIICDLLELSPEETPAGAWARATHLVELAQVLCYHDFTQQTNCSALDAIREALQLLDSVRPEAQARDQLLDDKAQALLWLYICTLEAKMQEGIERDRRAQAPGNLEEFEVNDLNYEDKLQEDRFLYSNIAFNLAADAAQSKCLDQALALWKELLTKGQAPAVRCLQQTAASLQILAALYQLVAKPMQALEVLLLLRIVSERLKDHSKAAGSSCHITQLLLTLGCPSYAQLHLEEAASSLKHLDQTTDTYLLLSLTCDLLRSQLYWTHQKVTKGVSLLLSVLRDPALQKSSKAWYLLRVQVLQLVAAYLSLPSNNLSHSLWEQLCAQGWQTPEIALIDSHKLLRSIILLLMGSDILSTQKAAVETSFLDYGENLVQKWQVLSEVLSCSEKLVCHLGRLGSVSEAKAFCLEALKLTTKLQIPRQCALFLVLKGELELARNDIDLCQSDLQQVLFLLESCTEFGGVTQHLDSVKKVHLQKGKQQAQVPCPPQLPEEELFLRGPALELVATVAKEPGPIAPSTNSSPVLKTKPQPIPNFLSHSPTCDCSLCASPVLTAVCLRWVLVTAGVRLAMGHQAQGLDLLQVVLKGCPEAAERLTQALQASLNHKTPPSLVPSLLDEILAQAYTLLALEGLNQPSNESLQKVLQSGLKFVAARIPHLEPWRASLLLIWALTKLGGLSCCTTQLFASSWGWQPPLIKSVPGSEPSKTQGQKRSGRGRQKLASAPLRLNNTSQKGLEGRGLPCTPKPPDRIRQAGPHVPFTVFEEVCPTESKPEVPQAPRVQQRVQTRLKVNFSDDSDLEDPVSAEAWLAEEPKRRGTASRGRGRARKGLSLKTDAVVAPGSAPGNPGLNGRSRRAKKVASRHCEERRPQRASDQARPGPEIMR
T1 sequence (Q14674 1536-2120): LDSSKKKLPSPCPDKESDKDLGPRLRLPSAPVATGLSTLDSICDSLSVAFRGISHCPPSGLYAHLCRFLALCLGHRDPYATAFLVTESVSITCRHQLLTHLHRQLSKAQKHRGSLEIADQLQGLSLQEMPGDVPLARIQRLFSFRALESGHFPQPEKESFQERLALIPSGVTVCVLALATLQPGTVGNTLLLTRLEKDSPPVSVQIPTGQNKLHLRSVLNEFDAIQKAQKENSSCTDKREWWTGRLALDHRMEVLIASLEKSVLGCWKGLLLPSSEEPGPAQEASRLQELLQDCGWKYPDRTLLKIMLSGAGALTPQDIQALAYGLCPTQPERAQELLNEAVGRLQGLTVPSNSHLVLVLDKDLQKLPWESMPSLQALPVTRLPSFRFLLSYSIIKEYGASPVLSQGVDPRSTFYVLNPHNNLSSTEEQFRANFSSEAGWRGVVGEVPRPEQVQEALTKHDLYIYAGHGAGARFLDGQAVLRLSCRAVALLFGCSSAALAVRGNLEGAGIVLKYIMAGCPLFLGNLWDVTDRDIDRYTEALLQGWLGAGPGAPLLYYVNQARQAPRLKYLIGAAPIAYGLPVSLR
Briefly: Re-inhibition of pre-activated separase by recombinant securin (cohesin hSCC1 cleavage). The note with it: separase 4 nM, one hour on ice. The format is biochemical. As for the experimental part: FIGS. 7A-7C depict the independent inhibition of separase activity by phosphorylation of separase and by binding of securin. (A) depicts a Western blot (upper panel) and cohesin^hSCC1 cleavage activity using isolated chromosomes as substrate (lower panel). Lane 2: Consecutive treatment of separase with high-Δ90 extract twice. (B) depicts separase that had been pre-activated in low-Δ90 extract that was eluted and incubated with recombinant securin (lanes 2 and 3) or reference buffer (lane 1) for one hour on ice. Subsequently, its cleavage activity towards in vitro translated ^35S-cohesin^hSCC1 was tested (upper panel). The separase concentration in each reaction was 4 nM, as estimated by Coomassie staining. To compare wild type separase with PM-2/4 mutant separase in its ability to bind securin the same experiment was repeated with PM-2/4 (lower panel). Roughly equal separase concentrations in both cases were assured by comparative immunoblotting (see FIG. 4B, lanes 15 and 17). (C) depicts a model for the dual inhibition of separase in metaphase and its activation at anaphase onset. PPase denotes an unknown protein phosphatase that is proposed to act on phosphorylated separase.
To determine whether securin can inhibit separase independent of the phosphorylation state of separase, and whether separase that has already been activated and has therefore cleaved itself be re-inhibited by either of the two inhibitory mechanisms, active separase was generated by treating a securin/separase complex with a low-Δ90 extract (L; FIG. 7) to degrade securin and dephosphorylate separase. […] Active separase on beads was then incubated with either recombinant securin or a high-Δ90 extract and assayed for its ability to cleave cohesin^hSCC1. […]

In assay [2] the target is T2, tagged human separase, wild type, with N-terminal ZZ-TEV4-tag (human, UniProt Q14674 1-2120).
T2 construct: It was therefore self-cleaved into about 175 and 55 kDa fragments and dephosphorylated; also called wild type separase; WT
Briefly: affinity-purified complex from transfected 293T cells.

For assay [3], the target named is T3, tagged human separase, wild type, with three N-terminal HA tags (human, UniProt Q14674 1-2120).
T3 construct: also called WT; wild type separase; not shown: three HA tags fused to the amino terminus
Put plainly: affinity isolation of tagged separase from metaphase-arrested transfected 293T cells, Western blot. For orientation: A western blot detects proteins with antibodies after separation by electrophoresis.

In assay [4] the target is T4, catalytically inactive human separase mutant (catalytic cysteine replaced by serine), with three N-terminal … (human, UniProt Q14674 1-2120).
T4 construct: also called CS; not shown: three HA tags fused to the amino terminus
Put plainly: affinity isolation of tagged catalytically inactive separase (CS, lane 2) from transfected 293T cells, Western blot.

On to `CC[C@H](CO)Nc1nc(NCc2ccccc2)c2ncn(C(C)C)c2n1` [roscovitine], for which the “Rescue of anaphase (sister separation and segregation) blocked in high-Δ90 extract” value in assay [1] is on record as “rescued both events with high efficiency”.

B1: human securin co-expressed with tagged separase in 293T cells (other, UniProt O95997 2-202, looked up)
chain: ATLIYVDKENGEPGTRVVAKDGLKLGSGPSIKALDGRSQVSTPRFGKTFDAPPALPKATRKALGTVNRATEKSVKTKGPLKQKQPSFSAKKMTEKTVKAKSSVPASDDAYPEIEKFFPFNPLDFESFDLPEEHQIAHLPLSGVPLMILDEERELEKLFQLGPPSPVKMPSPPWESNLLQSPSSILSTLDVELPPVCCDIDI
notes: also called associated securin
As for B1, the “Molar excess of securin sufficient to fully suppress cohesin hSCC1 cleavage” value in the assay with separase is about 2.5 fold molar excess. Also, the binding result in assay [2], in assay [3] and in assay [4] was “binds” throughout.
